Results on one protein are retold here after paper PMC6628679 (2019).

This data set concerns the molecule itself.

B1: PfPKG (protein)
chain: MEEDDNLKKGNERNKKKAIFSNDDFTGEDSLMEDHLELREKLSEDIDMIKTSLKNNLVCSTLNDNEILTLSNYMQFFVFKSGNLVIKQGEKGSYFFIINSGKFDVYVNDKKVKTMGKGSSFGEAALIHNTQRSATIIAETDGTLWGVQRSTFRATLKQLSNRNFNENRTFIDSVSVFDMLTEAQKNMITNACVIQNFKSGETIVKQGDYGDVLYILKEGKATVYINDEEIRVLEKGSYFGERALLYDEPRSATIIAKEPTACASICRKLLNIVLGNLQVVLFRNIMTEALQQSEIFKQFSGDQLNDLADTAIVRDYPANYNILHKDKVKSVKYIIVLEGKVELFLDDTSIGILSRGMSFGDQYVLNQKQPFKHTIKSLEVCKIALITETCLADCLGNNNIDASIDYNNKKSIIKKMYIFRYLTDKQCNLLIEAFRTTRYEEGDYIIQEGEVGSRFYIIKNGEVEIVKNKKRLRTLGKNDYFGERALLYDEPRTASVISKVNNVECWFVDKSVFLQIIQGPMLAHLEERIKMQDTKVEMDELETERIIGRGTFGTVKLVHHKPTKIRYALKCVSKRSIINLNQQNNIKLEREITAENDHPFIIRLVRTFKDSKYFYFLTELVTGGELYDAIRKLGLLSKSQAQFYLGSIILAIEYLHERNIVYRDLKPENILLDKQGYVKLIDFGCAKKVQGRAYTLVGTPHYMAPEVILGKGYGCTVDIWALGICLYEFICGPLPFGNDEEDQLEIFRDILTGQLTFPDYVTDTDSINLMKRLLCRLPQGRIGCSINGFKDIKDHPFFSNFNWDKLAGRLLDPPLVSKSETYAEDIDIKQIEEEDAEDDEEPLNDEDNWDIDF
Usually Kd stands for the free concentration of one partner at which half of the binding sites on the other are occupied at equilibrium, for simple one-to-one binding. B1 registered a Kd of around 32 µM.
